In paper PMC6468809, “Structural Analysis of the 42 kDa Parvulin of Trypanosoma brucei” (Biomolecules, 2019):
*1 amine or outer side, *2 acyl side, *3 side chain or, on linkers, in order; H or OH if unused. [ ]: non-standard residue; d: D form. pT = C[C@@H](OP(=O)(O)O)[C@H](N)C(=O)O; Suc = O=C(CCC(=O)[*:2])[*:1]

Target: TbPar42 N-terminal extended FHA domain (1-177) (T. brucei)
Assay: NMR titration; 440 uM 15N-labelled NterFHA or PPIase in 50 mM potassium phosphate, pH 6.26, 90%/10% H2O/D2O; peptide added stepwise to 13 mM; 1H-15N-HSQC or SOFAST spectra, 700 MHz, 27 °C

Kd: 4 mM
B1: Suc-Ala-pThr-Pro-Ala-NH2 (peptide)
peptide: Suc-A[pT]PA-NH2
SMILES: C[C@H](NC(=O)[C@@H]1CCCN1C(=O)[C@@H](NC(=O)[C@H](C)NC(=O)CCC(=O)O)[C@@H](C)OP(=O)(O)O)C(N)=O
